Results taken from PMC4730206, “The solution configurations of inactive and activated DntR have implications for the sliding dimer mechanism of LysR transcription factors” (Scientific Reports, 2016).
Blank lines part the entries; values can stand above or below the molecule they belong to.

How the values were obtained:
[1] = biological target: DntR-His6 from Burkholderia sp. (wild type) (Burkholderia sp.) (UniProt Q7WT50); test: SAXS; static SAXS of apo-DntR pre-incubated with 100 μM sodium salicylate (holo-DntR); repeated as SEC-SAXS with 5 mM salicylate; rigid body modelling of a tetramer
[2] = biological target: DntR-His6 from Burkholderia sp. (wild type) (Burkholderia sp.) (UniProt Q7WT50); test: crystal structure; apo-DntR crystals, hanging drops at 18 °C, 0.2 M sodium potassium tartrate, 0.1 M Tris-HCl pH 8.0, 5% PEG 6000; space group P6(5)22, two monomers in the asymmetric unit, tetramer from two symmetry-related dimers
[3] = biological target: DntR-His6 from Burkholderia sp. (wild type) (Burkholderia sp.) (UniProt Q7WT50); test: SAXS; static SAXS without inducer, in 1 M NaCl, 2 mM MgSO4, 1 mM DTT, 17% glycerol, 25 mM NaH2PO4-NaOH pH 8.0; apo-DntR at 3, 1 and 0.5 mg/mL (repeated as SEC-SAXS on Superdex 200), H169T-DntR at 0.7 mg/mL; fits to tetramer models
[4] = biological target: T1, DntR (DntR-His6) (Burkholderia sp. DNT, UniProt Q7WT50); test: Thermofluor thermal stability assay; format: binding; conditions: 100 µM sodium salicylate; inducer; apo-protein reference Tm in the 2nd table, row 4
T1 construct: full-length, C-terminal His6 tag (DntR-His6), recombinant, modelled to H303, homotetramer
T1 sequence (Q7WT50 1-301): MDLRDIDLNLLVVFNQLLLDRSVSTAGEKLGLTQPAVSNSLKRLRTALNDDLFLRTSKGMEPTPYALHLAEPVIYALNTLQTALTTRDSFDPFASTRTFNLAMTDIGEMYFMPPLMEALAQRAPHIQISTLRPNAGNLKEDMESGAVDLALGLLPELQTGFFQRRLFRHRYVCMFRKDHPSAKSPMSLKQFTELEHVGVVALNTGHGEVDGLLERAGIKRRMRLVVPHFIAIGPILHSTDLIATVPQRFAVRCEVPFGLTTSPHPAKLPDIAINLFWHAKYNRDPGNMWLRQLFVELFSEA
Description: Thermofluor thermal stability assay on DntR (DntR-His6)

[5] = biological target: H169T-DntR-His6 (Burkholderia sp.) (UniProt Q7WT50); test: crystal structure; H169T-DntR crystals, 0.2 M sodium tartrate, 0.2 M potassium thiocyanate, 0.5 mM sodium salicylate, 0.1 M Tris pH 8.5, 20% PEG 8000; thiocyanate bound; space group P6(5)22, dimer in the asymmetric unit, tetramer from two symmetry-related dimers
[6] = biological target: H169T-DntR-His6 (Burkholderia sp.) (UniProt Q7WT50); test: SAXS; static SAXS without inducer, in 1 M NaCl, 2 mM MgSO4, 1 mM DTT, 17% glycerol, 25 mM NaH2PO4-NaOH pH 8.0; apo-DntR at 3, 1 and 0.5 mg/mL (repeated as SEC-SAXS on Superdex 200), H169T-DntR at 0.7 mg/mL; fits to tetramer models

- stoichiometry N [1]: 4
- stoichiometry N [2]: 4
- stoichiometry N [3]: 4
Molecule: DntR-His6 from Burkholderia sp. (wild type) (from UniProt Q7WT50 1-301) (natural protein)

Molecule: O=C(O)c1ccccc1O [salicylate]
- Tm (^oC) [4]: 51 °C

- stoichiometry N [5]: 4
- stoichiometry N [6]: 4
Molecule: H169T-DntR-His6 (from UniProt Q7WT50 1-301) (natural protein)
